Experimental data: patent US7211395 (dated 2007)

Legend:
[1] = molecular target: human serum albumin (HSA) (human, UniProt P02768); test: FP, pH 7.4, 0.14 M NaCl, 0.1% caprylate
rhesus serum albumin = molecular target: T1, rhesus serum albumin (rhesus macaque, UniProt Q28522); test: FP, pH 6.2, no NaCl
T1 chain: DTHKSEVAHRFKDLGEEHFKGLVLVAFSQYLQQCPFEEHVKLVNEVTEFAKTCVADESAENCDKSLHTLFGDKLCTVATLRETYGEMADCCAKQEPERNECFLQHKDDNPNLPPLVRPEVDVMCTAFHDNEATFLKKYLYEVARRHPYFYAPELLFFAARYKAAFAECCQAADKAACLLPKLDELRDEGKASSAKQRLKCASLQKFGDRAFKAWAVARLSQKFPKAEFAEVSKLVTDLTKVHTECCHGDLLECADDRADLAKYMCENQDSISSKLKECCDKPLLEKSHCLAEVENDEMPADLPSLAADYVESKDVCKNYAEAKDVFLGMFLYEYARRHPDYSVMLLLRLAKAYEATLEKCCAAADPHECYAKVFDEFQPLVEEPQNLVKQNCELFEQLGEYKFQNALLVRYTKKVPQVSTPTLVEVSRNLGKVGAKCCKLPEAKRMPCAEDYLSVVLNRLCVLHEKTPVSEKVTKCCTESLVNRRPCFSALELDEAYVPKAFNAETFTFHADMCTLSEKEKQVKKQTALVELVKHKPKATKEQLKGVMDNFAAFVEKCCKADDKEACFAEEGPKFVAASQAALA

bovine serum albumin = bovine serum albumin (bovine, UniProt P02769); test: FP, pH 6.2, no NaCl
Sequence of bovine serum albumin (P02769 25-607): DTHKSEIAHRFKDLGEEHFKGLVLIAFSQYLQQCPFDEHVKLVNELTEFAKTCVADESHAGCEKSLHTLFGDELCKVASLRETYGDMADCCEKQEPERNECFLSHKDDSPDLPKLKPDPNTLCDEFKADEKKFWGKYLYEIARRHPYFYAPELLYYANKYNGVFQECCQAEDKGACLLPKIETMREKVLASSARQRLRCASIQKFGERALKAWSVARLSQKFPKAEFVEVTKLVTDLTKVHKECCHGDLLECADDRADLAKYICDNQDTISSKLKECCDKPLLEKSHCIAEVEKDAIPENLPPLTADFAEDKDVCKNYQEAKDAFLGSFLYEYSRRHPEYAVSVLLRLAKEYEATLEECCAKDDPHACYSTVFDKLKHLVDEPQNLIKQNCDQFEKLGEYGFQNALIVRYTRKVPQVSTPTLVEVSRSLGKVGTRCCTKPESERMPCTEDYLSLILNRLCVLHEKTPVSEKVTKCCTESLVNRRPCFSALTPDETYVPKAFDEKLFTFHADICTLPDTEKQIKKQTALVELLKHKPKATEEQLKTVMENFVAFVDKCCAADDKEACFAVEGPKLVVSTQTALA

chicken ovalbumin = molecular target: T2, chicken ovalbumin (chicken, UniProt P01012); test: FP, PBS pH 7.4
T2 chain: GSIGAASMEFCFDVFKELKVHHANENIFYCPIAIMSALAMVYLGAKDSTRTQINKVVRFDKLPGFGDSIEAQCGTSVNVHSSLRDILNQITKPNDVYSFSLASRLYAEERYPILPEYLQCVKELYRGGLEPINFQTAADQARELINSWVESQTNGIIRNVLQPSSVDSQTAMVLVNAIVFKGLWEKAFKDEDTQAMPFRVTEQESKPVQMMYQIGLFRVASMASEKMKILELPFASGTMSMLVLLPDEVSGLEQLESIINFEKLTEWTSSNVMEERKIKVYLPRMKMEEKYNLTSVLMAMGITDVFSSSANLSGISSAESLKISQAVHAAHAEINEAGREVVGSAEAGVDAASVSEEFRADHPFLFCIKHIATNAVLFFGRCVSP

rabbit serum albumin = molecular target: T3, rabbit serum albumin (rabbit, UniProt P49065); test: FP, PBS pH 7.4
T3 chain: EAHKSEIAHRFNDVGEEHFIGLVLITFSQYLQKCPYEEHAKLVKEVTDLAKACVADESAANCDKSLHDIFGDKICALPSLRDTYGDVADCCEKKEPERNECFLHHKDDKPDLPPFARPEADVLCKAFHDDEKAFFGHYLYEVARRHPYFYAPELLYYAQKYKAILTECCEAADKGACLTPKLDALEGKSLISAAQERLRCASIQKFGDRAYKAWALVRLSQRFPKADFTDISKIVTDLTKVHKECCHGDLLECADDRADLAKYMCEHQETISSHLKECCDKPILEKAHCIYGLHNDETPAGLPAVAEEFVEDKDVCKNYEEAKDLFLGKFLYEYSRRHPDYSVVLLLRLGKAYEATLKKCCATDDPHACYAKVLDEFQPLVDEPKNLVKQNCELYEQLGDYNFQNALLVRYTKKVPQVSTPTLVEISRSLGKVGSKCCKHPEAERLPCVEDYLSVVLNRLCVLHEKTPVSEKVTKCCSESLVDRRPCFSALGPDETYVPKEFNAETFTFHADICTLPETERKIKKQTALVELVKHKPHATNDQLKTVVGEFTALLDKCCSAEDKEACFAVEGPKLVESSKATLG

mouse serum albumin = mouse serum albumin (mouse, UniProt P07724); test: FP, pH 6.2, no NaCl
Sequence of mouse serum albumin (P07724 25-608): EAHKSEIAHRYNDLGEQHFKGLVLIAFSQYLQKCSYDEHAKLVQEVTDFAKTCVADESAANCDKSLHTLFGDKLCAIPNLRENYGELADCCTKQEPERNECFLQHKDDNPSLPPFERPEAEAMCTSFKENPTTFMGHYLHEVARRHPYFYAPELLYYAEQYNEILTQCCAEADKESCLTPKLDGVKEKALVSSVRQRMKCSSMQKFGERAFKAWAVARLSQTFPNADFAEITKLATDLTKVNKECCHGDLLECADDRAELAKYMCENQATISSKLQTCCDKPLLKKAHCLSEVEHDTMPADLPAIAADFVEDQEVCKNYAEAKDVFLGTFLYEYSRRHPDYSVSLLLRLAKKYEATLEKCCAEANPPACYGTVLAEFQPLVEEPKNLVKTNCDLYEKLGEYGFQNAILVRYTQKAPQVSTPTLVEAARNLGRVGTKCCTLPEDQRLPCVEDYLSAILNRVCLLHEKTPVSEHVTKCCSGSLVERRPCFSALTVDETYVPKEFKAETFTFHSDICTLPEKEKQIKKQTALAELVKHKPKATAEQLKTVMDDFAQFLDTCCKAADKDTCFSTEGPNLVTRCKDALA

Kd [1]: 75 µM
Kd (rhesus serum albumin): 38 µM
Kd (bovine serum albumin): 21 µM
Kd (chicken ovalbumin): > 200 µM
Kd (rabbit serum albumin): > 200 µM
Kd (mouse serum albumin): > 200 µM
B1: DX-321 (peptide)
chain: AEGTGDRNMCKFSWIRSPAFCARADPEXK
modifications: disulfide cyclic, N-acetyl, C-amide, X = 6-aminohexanoic acid, fluorescein on Lys
